Results as given in patent US20150056209A1, “PEPTIDE MIMOTOPES TO OXIDATION SPECIFIC EPITOPES” (The Regents of the University of California, priority 2012, published 2015).
Bridges are numbered along the chain shown (N, C = ends). Where no end group is shown, it is not given here.

Key:
[1] = target: control isotype anti-KLH IgM Ab (C48-6; BD Bioscience-Pharmingen); experiment: phage ELISA, coated control IgM
[2] = target: LRO4; experiment: competitive phage ELISA, coated LRO4; competitor MDA-LDL 50 µg/mL
[3] = target: LRO4; experiment: phage ELISA, coated LRO4

Binder	OD (binding of phages to control IgM) [1] [OD]	B/Bo (inhibition of binding to LR04) [2] [B/Bo]	OD (binding of phages to LR04) [3] [OD]
NSWTNASLSTFHGGGS (peptide, not shown: large carriers) [phage clone A40]	0.04	0.1	0.89
DYTNSVSMRYLSGGGS (peptide, not shown: large carriers) [phage clone M36]	0.01	0.07	1.47
HSWSNYWGHQHAGGGS (peptide, not shown: large carriers) [phage clone A32]	0.02	0.18	0.98
HRMTNNAMDVFMGGGS (peptide, not shown: large carriers) [phage clones M6, G10]	0.03	0.2	1.56
ESWTNSWAHYFGGGGS (peptide, not shown: large carriers) [phage clones A36, B41, M35]	0.03	0.14	1.16
QSYTNDDVLRISGGGS (peptide, not shown: large carriers) [phage clone M19]	0.03	0.25	1.67
QNMNNWTLASIMGGGS (peptide, not shown: large carriers) [phage clone A31]	0.08	0.25	0.85
ACDWAPHFTCGGGS (peptide, not shown: large carriers, disulfide 2-10; also: C-terminus fused to phage pIII) [phage clone Cb2]	0.2	0.03	1
ADPFSPTNRIPLGGGS (peptide, not shown: large carriers) [phage clone M7]	0.03	0.1	1.37
ACNNRNMPLCGGGS (peptide, not shown: large carriers, disulfide 2-10; also: C-terminus fused to phage pIII) [phage clones Ca59, Cb1]	0.1	0.06	0.8
HRLTNSEQAALPGGGS (peptide, not shown: large carriers) [phage clones M3, M5]	0.03	0.1	1.56
NSRTNNSQWTFQGGGS (peptide, not shown: large carriers) [phage clone A34]	0.11	0.11	0.82
ACNNSXMPLCGGGS (peptide, not shown: large carriers, disulfide 2-10; not fully specified; X: residue not identified in the source) [phage clone Ca6]	0	0.04	0.7
HRMTNAMHHFMGGGGS (peptide, not shown: large carriers) [phage clone A38]	0.21	0.1	0.64
ASISNLTLSRFMGGGS (peptide, not shown: large carriers) [phage clone M15]	0.04	0.15	1.34
HSLSNIQMATLAGGGS (peptide, not shown: large carriers) [phage clones M10, G8]	0.03	0.1	1.16

Binder	OD (binding of phages to control IgM) [1] [OD]	B/Bo (inhibition of binding to LR04) [2] [B/Bo]	OD (binding of phages to LR04) [3] [OD]
EVMNNWTLASIMGGGS (peptide, not shown: large carriers) [phage clone M30]	0.03	0.06	1.04
ACNNWKMPLCGGGS (peptide, not shown: large carriers, disulfide 2-10; also: C-terminus fused to phage pIII) [phage clone Cb4]	0.1	0.02	0.6
GWGNKTPSQDVHGGGS (peptide, not shown: large carriers) [phage clone A39]	0.05	0.19	1.19
HQLSNKDEQTPQGGGS (peptide, not shown: large carriers) [phage clone A33]	0.05	0.14	0.63
HRISNYAMELHSGGGS (peptide, not shown: large carriers) [phage clone G4]	0.04	0.1	1.45
TAVTNSMMERLWGGGS (peptide, not shown: large carriers) [phage clone M8]	0.04	0.2	1.57
ACNNSNMPLCGGGS (peptide, not shown: large carriers, disulfide 2-10; also: C-terminus fused to phage pIII) [phage clone Cb10]	0.2	0.02	0.6
ACNNYNMPLCGGGS (peptide, not shown: large carriers, disulfide 2-10; also: C-terminus fused to phage pIII) [phage clone Cb589]	0.1	0.03	0.8
ACKNSXQPLCGGGS (peptide, not shown: large carriers, disulfide 2-10; not fully specified; X: residue not identified in the source) [phage clone Ca4]	0.1	0.13	0.9
HSLTNTQMTQLSGGGS (peptide, not shown: large carriers) [phage clone M31]	0.03	0.4	1.35
ACNNWNMPLCGGGS (peptide, not shown: large carriers, disulfide 2-10; also: C-terminus fused to phage pIII) [phage clones Ca1, Ca7]	0.1	0.04	0.8
ESWTNSWAMYFGGGGS (peptide, not shown: large carriers) [phage clone M2]	0.03	0.2	1.17
ACNNQNMPLCGGGS (peptide, not shown: large carriers, disulfide 2-10; also: C-terminus fused to phage pIII) [phage clone Cb9]	0.01	0.02	0.7
ACNNSHMPLCGGGS (peptide, not shown: large carriers, disulfide 2-10; not fully specified) [phage clones Ca9, Cb3, Ca8, Ca10]	0.2	0.04	0.9
ACQNSHMPLCGGGS (peptide, not shown: large carriers, disulfide 2-10; also: C-terminus fused to phage pIII) [phage clone Ca3]	0.1	0.04	0.5
ACNNSKMRLCGGGS (peptide, not shown: large carriers, disulfide 2-10; also: C-terminus fused to phage pIII) [phage clone Ca2]	0.2	0.12	0.8
